Reference: patent publication US20240376151A1, “STAPLED PEPTIDES AND METHODS THEREOF” (FOG PHARMACEUTICALS, INC., priority 2022, published 2024)

Molecular target: T1, RNF31 PUB domain (Homo sapiens, UniProt Q96EP0)
T1 construct: MBP-TEV (N, cleaved yes); made in house; host or cells: E. coli BL21 (DE3) pLysS
T1 sequence (Q96EP0 1-179): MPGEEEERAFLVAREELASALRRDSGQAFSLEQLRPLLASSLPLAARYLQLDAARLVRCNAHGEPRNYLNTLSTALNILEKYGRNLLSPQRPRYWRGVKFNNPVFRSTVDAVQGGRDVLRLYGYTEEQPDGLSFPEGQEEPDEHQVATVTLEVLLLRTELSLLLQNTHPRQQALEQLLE
Experiment: Phage Library Screening with NGS, RNF31 PUB domain
Assay type: binding
Settings: for Phage library screen NGS readout, Target Concentration 10 / Phage library screen NGS readout, Target Concentration 30 / Phage library screen NGS readout, Target Concentration 100 / Phage library screen NGS readout, Target Concentration 300 / Phage library screen NGS readout, Target Concentration 1000: RNF31 PUB domain clusters C41-C45; for Phage library screen NGS readout, BLANK: clusters C41-C45

[1] = target concentration 1000, first column
[2] = target concentration 1000, second column

Phage library screen NGS readout, Target Concentration 10	Phage library screen NGS readout, Target Concentration 30	Phage library screen NGS readout, Target Concentration 100	Phage library screen NGS readout, Target Concentration 300	Phage library screen NGS readout, Target Concentration 1000 [1]	Phage library screen NGS readout, Target Concentration 1000 [2]	Phage library screen NGS readout, BLANK (column 1 of 5)	Phage library screen NGS readout, BLANK (column 2 of 5)	Phage library screen NGS readout, BLANK (column 3 of 5)	Phage library screen NGS readout, BLANK (column 4 of 5)	Phage library screen NGS readout, BLANK (column 5 of 5)	Sequence
0	0	0	0	8	4	0	0	0	0	0	DPAWTDCDWAALYCDES
0	0	0	4	26	17	0	0	0	0	0	DPAADQCDIAAFVCSTY
0	0	0	1	6	5	0	0	0	0	0	DPAYDYCLYAAQDCVWW
1	1	5	2	7	4	1	1	4	2	1	DPAYSSCSWAAIYCNWT
0	1	3	10	42	49	0	0	0	1	0	DPAIRECMLAALVCSTY
0	1	0	2	14	5	0	0	0	0	0	DPAWESCMYAAYDCDNE
1	10	0	7	14	15	0	2	2	1	1	DPAWWSCMYAAWTCDDT
0	0	1	12	40	44	0	0	1	0	0	DPARRECWDAAILCTYY
1	1	1	5	6	8	3	2	0	1	0	DPAQHECIYAAWDCDML
0	1	0	2	10	15	0	4	0	0	0	DPAWEHCLYAAYDCTHE
0	0	1	14	44	32	0	0	0	0	0	DPAEEYCLEAAILCTYD
0	0	0	3	26	26	0	0	0	0	0	DPAFHDCQFAAAVCSTY
0	1	0	2	6	7	0	0	0	0	0	DPAYSLCISAAVECTYY
1	0	0	3	31	12	0	0	0	0	1	DPAFDWCLYAADDCAET
2	0	1	8	46	29	0	1	0	0	1	DPAWDYCMYAAYDCNHS
0	0	0	3	3	8	0	0	0	1	0	DPAYDWCMYAAHECVDQ
0	0	0	3	13	6	0	0	1	0	0	DPAWWNCLYAADECWSW
0	0	0	3	6	9	1	0	0	0	1	DPAFWACLYAAEECVVD
